Biological target: Shroom2 ASD2 domain (UniProt Q13796)
Assay: pull-down of Ala mutants
Conditions: reference: Scrib-C wild type; sites S1508

Sequence of UniProt Q13796 (Q13796 whole entry, looked up, the tested form may be a part): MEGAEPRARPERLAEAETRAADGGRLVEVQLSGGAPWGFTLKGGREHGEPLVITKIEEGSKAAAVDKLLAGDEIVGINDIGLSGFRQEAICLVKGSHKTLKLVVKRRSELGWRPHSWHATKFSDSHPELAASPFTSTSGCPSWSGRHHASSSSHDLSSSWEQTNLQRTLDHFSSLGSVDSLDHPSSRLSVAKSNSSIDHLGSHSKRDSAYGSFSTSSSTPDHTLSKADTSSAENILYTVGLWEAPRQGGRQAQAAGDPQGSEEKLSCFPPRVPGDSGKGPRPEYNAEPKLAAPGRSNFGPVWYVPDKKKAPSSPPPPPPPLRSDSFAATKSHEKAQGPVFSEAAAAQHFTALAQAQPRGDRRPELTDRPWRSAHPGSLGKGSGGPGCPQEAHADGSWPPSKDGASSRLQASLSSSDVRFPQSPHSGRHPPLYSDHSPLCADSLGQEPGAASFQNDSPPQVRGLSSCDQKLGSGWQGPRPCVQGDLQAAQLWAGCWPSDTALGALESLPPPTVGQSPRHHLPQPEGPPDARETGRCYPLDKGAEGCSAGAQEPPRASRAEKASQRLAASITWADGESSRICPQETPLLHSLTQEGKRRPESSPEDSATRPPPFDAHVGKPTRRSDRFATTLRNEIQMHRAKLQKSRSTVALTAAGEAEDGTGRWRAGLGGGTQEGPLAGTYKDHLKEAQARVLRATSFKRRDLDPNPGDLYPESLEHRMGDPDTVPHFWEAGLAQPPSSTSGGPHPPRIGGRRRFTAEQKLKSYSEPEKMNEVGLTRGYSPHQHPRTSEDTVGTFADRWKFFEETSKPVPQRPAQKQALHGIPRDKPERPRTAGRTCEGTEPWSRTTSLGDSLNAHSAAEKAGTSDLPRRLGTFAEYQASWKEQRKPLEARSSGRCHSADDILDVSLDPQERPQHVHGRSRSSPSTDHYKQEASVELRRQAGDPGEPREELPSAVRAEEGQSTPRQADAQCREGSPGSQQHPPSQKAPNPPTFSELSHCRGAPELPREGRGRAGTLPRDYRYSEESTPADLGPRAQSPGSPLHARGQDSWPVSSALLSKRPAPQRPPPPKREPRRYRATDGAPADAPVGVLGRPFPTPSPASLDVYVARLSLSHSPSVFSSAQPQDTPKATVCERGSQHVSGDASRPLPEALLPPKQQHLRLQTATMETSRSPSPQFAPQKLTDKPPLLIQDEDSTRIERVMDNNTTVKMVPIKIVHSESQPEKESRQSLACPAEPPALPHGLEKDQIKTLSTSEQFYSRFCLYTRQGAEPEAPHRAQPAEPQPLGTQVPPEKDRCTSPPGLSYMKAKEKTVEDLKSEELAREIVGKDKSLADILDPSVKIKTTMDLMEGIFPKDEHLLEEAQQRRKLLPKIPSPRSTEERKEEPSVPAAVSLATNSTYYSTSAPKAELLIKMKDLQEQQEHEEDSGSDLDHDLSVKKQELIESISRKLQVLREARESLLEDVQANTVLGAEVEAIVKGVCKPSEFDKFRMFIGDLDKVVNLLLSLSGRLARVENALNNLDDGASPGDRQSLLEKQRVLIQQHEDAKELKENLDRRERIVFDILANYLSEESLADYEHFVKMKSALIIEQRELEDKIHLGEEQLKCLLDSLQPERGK

- binding against the reference: weaker
Substance: Scrib Scrib-C, 1235-1630 (from UniProt Q14160-1) Scrib-C S1508A
